Source: patent publication US20100297662A1 (TAO HEALTH LIFE PHARMA, published 2010)

Assays:
amylospheroid 42 [1] = target: T1, amylospheroid 42 (Homo sapiens (Human), UniProt P05067 672-713); experiment: SPR, ratio of Kd values (40Aβ against 42ASPD)
T1 construct: also called 42ASPD; ASPD
Method: (§1) 10 μg/ml amylospheroid (42ASPD), amyloid β monomer (42Aβ, 40Aβ), and Aβ fibril (fibril) prepared from 40Aβ were coupled to CM5 sensor chips of BIACore 3000 (BIAcore) at a concentration of […] in 50 mM acetate buffer. With the use of an antibody solution subjected to two-fold serial dilution from the maximal concentration of 100 nM in a buffer (10 mM HEPES, pH 7.4, 0.15 M NaCl, 3 mM EDTA, 0.005% Surfactant P20), the association rate constant and the dissociation rate constant were determined. With the use of these constants, the dissociation constant was calculated by the following equation.
(§2) Through the same procedure as that in Example 3(3), 42ASPD, 40Aβ (Aβ monomer), and Aβ fibril (42 fibril) prepared from 42Aβ were coupled to CM5 sensor chips, and dissociation constants of the hamster antibody haASD2, the humanized antibody huASD2, and the anti-Aβ antibody 3D6 (US 20030165496 A1) with respect to the above-described proteins were determined. […]

[2] = target: T2, Aβ fibril (42 fibril) prepared from 42Aβ (Homo sapiens (Human), UniProt P05067 672-713); experiment: SPR (BIAcore), antigen on CM5 chip, antibody in solution
T2 construct: Fibrillar self-assembly of Aβ1-42; also called amyloid fibril
Method: as §1
(§3) Through the same procedure as that in Example 3(3), 42ASPD, 40Aβ (Aβ monomer), and Aβ fibril (42 fibril) prepared from 42Aβ were coupled to CM5 sensor chips, and dissociation constants of the hamster antibody haASD2, the humanized antibody huASD2, and the anti-Aβ antibody 3D6 (US 20030165496 A1) with respect to the above-described proteins were determined. The anti-Aβ antibody 3D6 was produced as follows: synthesis genes corresponding to the mouse antibody light chain variable domain 3d6vl.aa and the synthesis gene corresponding to the heavy chain variable domain 3d6vh.aa of the same described in US 20030165496 A1 were produced by a conventional method, and were joined to the light chain constant domain and the heavy chain constant domain of a known mouse antibody, respectively, on the basis of the information of the aforementioned patent; by so doing, it was produced as a mouse IgG2b/κ molecule.

amylospheroid 42 [3] = target: T1, amylospheroid 42; experiment: as above
Method: as §1, §3

[4] = target: T3, monomeric amyloid β40-protein (Aβ1-40); experiment: as above
T3 construct: also called 40Aβ; Aβ1-40 monomer
Method: as §1, §3

[5] = target: T4, N-terminus peptide (Aβ1-5) of the monomeric amyloid β-protein; experiment: competitive ELISA with 5-residue Aβ peptides, same method as Example 4
T4 construct: Synthetic 5-residue peptide
T4 peptide: DAEFR
Source text: Which one of Aβ five residue peptides the humanized antibody huASD2 was joined to was examined using the same method as that in Example 4.

amylospheroid 42 [6] = target: T1, amylospheroid 42; experiment: SPR, ratio of Kd values (42 fibril against 42ASPD)
Method: as §1, §2

T1 sequence (P05067 672-713 limits assumed): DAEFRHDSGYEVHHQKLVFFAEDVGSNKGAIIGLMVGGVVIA
T3 sequence (peptide, as listed by the source): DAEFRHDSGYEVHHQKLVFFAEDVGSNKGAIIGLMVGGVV
T2 sequence (P05067 672-713 limits assumed): as the sequence (P05067 672-713 limits assumed) above

- fold higher affinity with ASPD than with amyloid β-monomer (amylospheroid 42 [1]): ~580 times
- Kd [2]: 1.15 nM
- Kd (amylospheroid 42 [3]): 0.18 nM
- Kd [4]: 105 nM
- binding result [5]: binds
- fold higher affinity with ASPD than with amyloid fibril (amylospheroid 42 [6]): ~6.4 times
B1: humanized antibody huASD2 (antibody, V domains shown)
VH: EVQLVESGGGLVKPGGSLRLSCAASGFTFSDYFMSWVRQAPGKGLEWVGGIEIKSYFYATYYFGSVKGRFTISRDDSKNTLYLQMNSLKTEDTAVYYCTTNREVGGLDNWGQGTLVTVSS
VL: QSVLTQPSSLSASPGASASLTCTLRSGISVGGKNIYWYQQKPGSPPQYLLKYSSYSNKQLGPGVPSRFSGSKDASANAGILLISGLQSEDEADYYCSIHESNAYVFGGGTKLTVLG
notes: Humanized from haASD2; expressed from plasmids ASD2RHApG1D200 (heavy chain) and ASD2RLApLN100 (light chain); also called RHA/RLA; ASD2RHA/ASD2RLA
